{"source": "patent US20260167702A1", "about": "“HUMAN BROADLY CRO[…] […] METHODS OF USE THEREOF” (Dana-Farber Cancer Institute, Inc., priority 2021, published 2026)", "key": {"in_vivo [1]": {"system": "in_vivo", "experiment": "Influenza ADE study in mice, lung virus load by plaque assay", "set-up": "species or system BALB/c mice", "from_the_text": "Graphs of lung virus load vs dose in 3I14 (left) and 3I14 LALA (right) in an influenza antibody-dependent enhancement study in mice.\n3I14 LALA avoids antibody-dependent enhancement (ADE)."}, "binding [2]": {"system": "binding", "set-up": "species or system influenza A virus"}, "cell_based [3]": {"system": "cell_based", "set-up": "species or system influenza A virus"}, "cell_based [4]": {"system": "cell_based", "set-up": "species or system influenza A virus", "remark": "listed apart in the source"}, "cell_based [5]": {"system": "cell_based", "set-up": "species or system influenza A virus", "remark": "listed apart in the source"}, "binding [6]": {"system": "binding", "set-up": "species or system influenza A virus", "remark": "listed apart in the source"}, "binding [7]": {"molecular_target": "binding (Influenza A virus, UniProt C3W5S1)"}, "binding [8]": {"molecular_target": "binding", "details": "read-out: mean Kd H9-HK99"}, "in_vivo [9]": {"system": "in_vivo", "set-up": "species or system BALB/c mice"}, "cell_based [10]": {"molecular_target": "cell_based (Influenza A virus, UniProt P03452)", "sequence (P03452 344-565)": "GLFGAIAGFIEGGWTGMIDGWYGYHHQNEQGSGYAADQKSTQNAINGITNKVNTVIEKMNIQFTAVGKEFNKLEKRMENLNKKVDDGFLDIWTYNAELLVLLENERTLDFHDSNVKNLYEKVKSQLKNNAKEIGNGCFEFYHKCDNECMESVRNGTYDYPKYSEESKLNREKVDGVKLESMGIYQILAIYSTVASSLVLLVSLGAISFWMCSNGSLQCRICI", "sequence (P03452 18-343)": "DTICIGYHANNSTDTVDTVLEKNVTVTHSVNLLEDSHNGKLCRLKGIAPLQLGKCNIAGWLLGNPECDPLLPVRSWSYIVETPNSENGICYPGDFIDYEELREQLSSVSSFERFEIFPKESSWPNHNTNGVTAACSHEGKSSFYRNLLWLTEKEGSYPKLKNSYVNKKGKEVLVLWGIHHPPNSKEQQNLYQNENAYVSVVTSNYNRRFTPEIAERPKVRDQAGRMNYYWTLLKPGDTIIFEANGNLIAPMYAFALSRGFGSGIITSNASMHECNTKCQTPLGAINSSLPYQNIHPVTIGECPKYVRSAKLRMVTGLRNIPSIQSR"}, "cell_based [11]": {"system": "cell_based"}, "cell_based [12]": {"system": "cell_based", "remark": "listed apart in the source"}, "binding [13]": {"system": "binding", "set-up": "species or system influenza A virus", "remark": "listed apart in the source"}, "in_vivo [14]": {"system": "in_vivo", "set-up": "species or system BALB/c mice", "remark": "listed apart in the source"}, "in_vivo [15]": {"system": "in_vivo", "set-up": "species or system BALB/c mice", "remark": "listed apart in the source"}, "binding [16]": {"system": "binding", "set-up": "species or system influenza A virus", "remark": "listed apart in the source"}, "biochemical_functional": {"system": "biochemical_functional", "set-up": "species or system influenza A virus", "details": "pH 8"}, "binding [17]": {"system": "binding", "set-up": "species or system influenza A virus", "remark": "listed apart in the source"}, "in_vivo [18]": {"system": "in_vivo", "set-up": "species or system BALB/c mice", "remark": "listed apart in the source"}, "cell_based [19]": {"molecular_target": "cell_based (Influenza A virus, UniProt C3W5S1)"}, "binding [20]": {"molecular_target": "binding", "set-up": "species or system influenza A virus", "details": "read-out: mean Kd H5-IN05"}, "cell_based [21]": {"system": "T1, cell_based", "T1 construct": "other: purified scFvFc antibodies; transfected 293T cells; The full length HA genes of ... were cloned into pcDNA3.1 vector and transfected into 293T/17 cells to produce cell surface expressed HA", "set-up": "species or system influenza A virus"}, "binding [22]": {"system": "binding", "set-up": "species or system influenza A virus", "remark": "listed apart in the source"}, "in_vivo [23]": {"system": "in_vivo", "details": "cited from earlier work"}, "in_vivo [24]": {"system": "in_vivo", "details": "oseltamivir combined with up to 8,400 mg antibody; cited from earlier work"}}, "note": "Several values for one entry are separate records, joined by “and”; a condition that tells them apart may be missing. Equal entries are not always repeated. Entries after “also recorded” stand apart in the source; their conditions may differ. Where two headings read alike, the source gives them in different places.", "data": [{"molecule": "3I14: human broadly neutralizing anti-influenza A HA stem mAb from memory B cells; VH SEQ ID NO: 2, VL SEQ ID NO: 4 (antibody, V domains shown) VH: QVQLLESGGGVVQPGRSLRLSCAASGFTFSNYGMHWVRQAPGKGLEWVAIISFDGSKKYYANSVKGRSTISRDNSKNTLSLQMNSLGPEDTALYYCAKLPSPYYFDSRFVWVAASAFHFWGQGILVTVSS VL: NFMLTQPPSASGTPGQRVTISCSGSSSNIGGNTVHWFQQLPGTAPKLLIYTNSLRPSGVPDRFSGSKSGTSASLAISGLQSEDEADYYCAAWDDSLNGQVFGGGTKLTVL", "values": [{"measurement": "virus levels in the lungs at high doses", "setting": "in_vivo [1]; doses ≥5 mg/kg", "result": "reduced virus levels"}, {"measurement": "increase of viral titers in lung tissue, 3I14 compared to 3I14 LALA", "setting": "in_vivo [1]; intermediate low dose levels", "result": "~2", "unit": "fold"}, {"measurement": "virus levels in the lungs compared with controls", "setting": "in_vivo [1]; intermediate low dose levels, IP 1 hour prior to intranasal challenge, Day 4", "result": "~2", "unit": "fold"}, {"measurement": "affinity for H1 subtypes", "setting": "binding [2]", "result": "high affinity"}, {"measurement": "IC50 H3-BR07 infectious virus", "setting": "cell_based [3]", "result": 0.3054, "unit": "µg/mL"}, {"measurement": "HA1-HA2 dissociation after DTT treatment", "setting": "cell_based [4]", "result": "prevented HA1-HA2 dissociation"}, {"measurement": "binding to dissociated HA2 mediated by DTT reduction", "setting": "cell_based [4]", "result": "did not bind"}, {"measurement": "binding to uncleaved HA precursor (HA0) and mature forms (HA)", "setting": "cell_based [4]", "result": "binds to both uncleaved HA precursor (HA0)"}, {"measurement": "inhibition of pH-dependent HA rearrangement", "setting": "cell_based [4]; pH 4.9", "result": "inhibits the pH-dependent HA rearrangement"}, {"measurement": "IC50 H5-VN04 pseudovirus", "setting": "cell_based [5]", "result": 0.08158, "unit": "µg/mL"}, {"measurement": "binding to HA1 subunit of H3 PE-09", "setting": "binding [6]", "result": "did not bind"}, {"measurement": "Koff H1-CA09", "setting": "binding [7]", "result": "4.87e-05", "unit": "s⁻¹"}, {"measurement": "Kon H1-CA09", "setting": "binding [7]", "result": 174000, "unit": "M⁻¹ s⁻¹"}, {"measurement": "Kd", "setting": "binding [7]; read-out: Kd H1-CA09", "result": 0.279, "unit": "nM"}, {"measurement": "Kd", "setting": "binding [8]", "result": 5.23, "unit": "nM"}, {"measurement": "body weight loss, H7N7-NL219 challenge", "setting": "in_vivo [9]", "result": "minimal body weight loss"}, {"measurement": "protection from death, H7N7-NL219 challenge", "setting": "in_vivo [9]", "result": "fully protected"}, {"measurement": "IC50 H1-PR8", "setting": "cell_based [10]", "result": 0.413, "unit": "µg/mL"}, {"measurement": "luciferase response in Jurkat reporter cells (ADCC), H5 targets", "setting": "cell_based [11]", "result": "at a lower level than FI6v3, CR9114, 39.29 and F10"}, {"measurement": "luciferase response in Jurkat reporter cells (ADCC), H3 targets", "setting": "cell_based [12]", "result": "induced a significant luciferase response"}, {"measurement": "inhibition of binding of 39.29 and F10 to H5-VN04", "setting": "binding [13]", "result": "inhibited; also recorded: partially inhibits"}, {"measurement": "inhibition of binding of anti-H5 head antibody 2A to H5-VN04", "setting": "binding [13]", "result": "did not inhibit; also recorded: does not inhibit"}, {"measurement": "protection against H3N2-BR07", "setting": "in_vivo [14]", "result": 80, "unit": "%"}, {"measurement": "protection against H3N2-BR07, over doses", "setting": "in_vivo [14]", "result": "60-80%"}, {"measurement": "protection against H5N1-VN04", "setting": "in_vivo [15]", "result": 60, "unit": "%"}, {"measurement": "protection against H5N1-VN04, over doses", "setting": "in_vivo [15]", "result": "20-60%"}, {"measurement": "Koff H5-VN04", "setting": "binding [16]", "result": "0.000383 s⁻¹ and 0.000387 s⁻¹"}, {"measurement": "Kon H5-VN04", "setting": "binding [16]", "result": "375000 M⁻¹ s⁻¹ and 327000 M⁻¹ s⁻¹"}, {"measurement": "prevention of trypsin cleavage of immature HA0", "setting": "biochemical_functional", "result": "prevented cleavage of immature HA0"}, {"measurement": "Koff H3-PE09", "setting": "binding [17]", "result": "3.99e-05", "unit": "s⁻¹"}, {"measurement": "Kon H3-PE09", "setting": "binding [17]", "result": 152000, "unit": "M⁻¹ s⁻¹"}, {"measurement": "binding to trimeric full-length H3 A/Perth/16/09", "setting": "binding [17]", "result": "bound"}, {"measurement": "body weight loss, H7N9-AH13 challenge", "setting": "in_vivo [18]", "result": "minimal body weight loss"}, {"measurement": "protection from death, H7N9-AH13 challenge", "setting": "in_vivo [18]", "result": "fully protected"}, {"measurement": "IC50 H1-CA09", "setting": "cell_based [19]", "result": 0.225, "unit": "µg/mL"}, {"measurement": "Kd", "setting": "binding [20]", "result": 1.05, "unit": "nM"}, {"measurement": "binding to cell surface-expressed HAs by flow cytometry", "setting": "cell_based [21]", "result": "bound"}]}, {"molecule": "3I14 Fab: Fab of 3I14 used in the binding competition ELISA (antibody, V domains shown) VH: QVQLLESGGGVVQPGRSLRLSCAASGFTFSNYGMHWVRQAPGKGLEWVAIISFDGSKKYYANSVKGRSTISRDNSKNTLSLQMNSLGPEDTALYYCAKLPSPYYFDSRFVWVAASAFHFWGQGILVTVSS VL: NFMLTQPPSASGTPGQRVTISCSGSSSNIGGNTVHWFQQLPGTAPKLLIYTNSLRPSGVPDRFSGSKSGTSASLAISGLQSEDEADYYCAAWDDSLNGQVFGGGTKLTVL", "values": [{"measurement": "competition with E730 (anti-HA1 head Ab) for binding to H3-BR07", "setting": "binding [22]", "result": "did not compete"}, {"measurement": "competition with anti-stem Abs CR8020, CR9114, FI6(v3) and 39.29 for binding to H3-BR07", "setting": "binding [22]", "result": "cross-competed; also recorded: strongly inhibits"}]}, {"molecule": "MHAA4549A: Genentech broadly neutralizing influenza A mAb (antibody, chains of the INN, looked up, V domains shown) VH: EVQLVESGGGVVQPGKSLRLSCAASGLTFSSYAVHWVRQAPGKGLEWVTLISYDGANQYYADSVKGRFTISRDNSKNTVYLQMNSLRPEDTAVYYCAVPGPVFGIFPPWSYFDNWGQGILVTVSS VL: EIVLTQSPATLSVSPGERATLSCRASQVISHNLAWYQQKPGQAPRLLIYGASTRASGIPARFSGSGSGTDYTLTITSLQSEDFAVYYCQHYSNWPPRLTFGGGTKVEIK", "values": [{"measurement": "viral load", "setting": "in_vivo [23]; 1200 mg, listed as MHAA4549A/Gedivumab", "result": "increase in viral load"}, {"measurement": "viral loads", "setting": "in_vivo [23]; 400 and 3600 mg", "result": "reduction in viral loads"}, {"measurement": "O2 or ventilation support", "setting": "in_vivo [24]", "result": "required increase in O2 or ventilation support"}, {"measurement": "duration of viral shedding", "setting": "in_vivo [24]", "result": "increased duration of viral shedding"}, {"measurement": "fatality due to any cause", "setting": "in_vivo [24]", "result": "higher fatality percentage due to any cause"}]}]}
